Source: the supplement of paper PMC12764529
± gives the half width of the 95% confidence interval.

Test: folding stability dG unfold (combined trypsin and chymotrypsin); higher = more stable
Procedure, shortened: (§1)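 Only designs with AlphaFold2 dimer inter-PAE above 15 were retained; each was a mini-protein under 80 residues with no cysteine, in a PA-tagged cDNA display construct. After digestion with trypsin and chymotrypsin and sequencing, K50 was inferred by Bayesian fitting of counts, and unfolding free energy was derived per protease or combined against a sequence-predicted unfolded-state K50 and a shared folded-state K50.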

Sequence | folding stability dG unfold
SAGGSAGGSKMLLVKVYVPEFDTVVVFEAPRDITIEEIEERLREAGFSVARIEVVEFDLPEGGSAGGSAGGS [r12_955_TrMRF] | 3.55 ± 0.071 kcal/mol
SAGGSAGGSASSMVKPEKLPNGEKVVVTTETVPDPNSDTPVTVVTTEIYKGDKIVEVKTTLVSAGGSAGGSA [r18_185_JUSTAS] | 0.439 ± 0.13 kcal/mol
SAGMVTLRVKLKDGRELEIQLASEEEIESLPPGAKVIPIPAESEEEALEAAARLLAEEEGLEIEEVEKVSAG [r5_119_TrROS_Hall] | 0.638 ± 0.049 kcal/mol
SAGGSAGGSAGGMKVIKIEDVEKVKAEAKKNGIKVTYKKENDGEIIAYIEKIPKSIKNKSAGGSAGGSAGGS [r10_218_JUSTAS] | -0.00327 ± 0.23 kcal/mol
SAGGSAGGSAGEPKLILVEVEGYPDPESNLVYVEFPNGDIATFAVDSAAPDQPVLVLVNPSAGGSAGGSAGG [r11_621_TrMRF] | 0.28 ± 0.045 kcal/mol
SFGMIEIENEAFLPDGFRFKVEVWVMVDPDNGNLMIMLDIEIEPIPPPPPPPEPKPVKDKNGDWKPANDMSA [r9_898_TrROS] | 3.12 ± 0.18 kcal/mol
SFTPEQVKDIAKTIANRMYDNGYEVEVDVEVEPVNNMPYVEIEFEWRDPDGQPWKFEIIIHPDGDIEIYPSA [r9_1027_TrROS] | 2.43 ± 0.21 kcal/mol
SAGGSAGGSAGEEKETLTLVLPLEDMSPEEIAKLLEAAGYKVTVEEKDGLLVVKIERKPPSAGGSAGGSAGG [r11_707_TrROS_Hall] | 2.77 ± 0.065 kcal/mol
SAGGKLPKLPPGQIEIMDFQIEPDPDGRYKMSFMITITAPDNGKKVVVMLEMWMPPDGEMKTGIGIMPSAGG [r13_263_TrROS] | 2.65 ± 0.34 kcal/mol
SAGGMEPPPMLLLVIEIENEDGEKLRIVVPLEDLEEVLKALGLSKEEVRIKKIEVVPLTDEQLKELLESAGG [r13_850_TrROS_Hall] | 3.32 ± 0.28 kcal/mol
SAGGSALENLEENEYIVKIEIEKKNKKKIEIVIAGKPEKIKEIEKELKKKGFKILKIEPKKVKDVLSAGGSA [r15_640_TrMRF] | 1.56 ± 0.1 kcal/mol
SVEKAREALEEAGFEVTRIEVREDGTVRVTVRRDGKLVEIELTVEPPPPVEVVEEEPEVRVERRYSAEDLSA [r9_2_TrROS_Hall] | 0.212 ± 0.35 kcal/mol
SAETVTFRVGDVEIVARRLPDGYVVVTEKVPEEYPEAELVLSLVRVYPDGTVEVESRLYRIDPETGVIGSAG [r14_724_TrMRF] | 2.48 ± 0.17 kcal/mol
SAMKTVTIKVTVEVTKNENGEEVKTVTVTLTLPEEEMTEEQLKELAKELADKLAEENNLTVKITKIEVTSAG [r14_190_TrROS_Hall] | 3.08 ± 0.06 kcal/mol
SAGGSAGGSAILVPSPETAKKIMDELRKKTGAKVKMKPIGTGADGKEYYRIEVVPPDKPLDSAGGSAGGSAG [r3_59_TrMRF] | 0.0705 ± 0.14 kcal/mol
SAGGMPADTPVIPIEILDIRVEPDPESDSYTAEVKVRFPDGTEKTFTIKLPKDATLEDVIEKAKELAASAGG [r13_578_TrMRF] | 4.1 ± 0.18 kcal/mol
SAGGSAGGSAGGMVITVPKENLKELIDALRKEGKARIVSVEEKDGLVTITVELEDEELESAGGSAGGSAGGS [r10_695_TrROS_Hall] | 2.95 ± 0.11 kcal/mol
SAGGSAGGSATATVTPHEGAWTVTVTGPDSTETFTFEADEETVREFVELLKAPDVDIDPVPGSAGGSAGGSA [r18_103_TrMRF] | 1.46 ± 0.086 kcal/mol
SAGGSAGGSAGGFNIEVVPGEPGWVIKIEFPDHPITAFVDPEDGKLWIYNPDNGMIFPLSAGGSAGGSAGGS [r10_434_TrROS] | 2.03 ± 0.077 kcal/mol
SLSPSTPISSEEEAKEAAEKLAEEVREELGEDLPIVVDIERKELEDGTIVVKFTFYVPETGEKLLEVEVGSA [r9_794_JUSTAS] | 1.27 ± 0.16 kcal/mol
SAGGSAGGSKPDEVEVIEIKVPPGARVRLPDGSVVEIKPGDPNTTYRIVVDKKNKKITIEPLDSAGGSAGGS [r12_338_TrROS_Hall] | 1.46 ± 0.27 kcal/mol

Test: folding stability dG unfold from trypsin proteolysis; higher = more stable
Procedure, shortened: as §1

Sequence | folding stability dG unfold
SAGGSAGGSGGMTPTSRDYVLPNGEKLAVEETFTFPDGSSVTKVLDPKTGTTTTLPASTIASASAGGSAGGS [r12_488_JUSTAS] | 0.451 ± 0.032 kcal/mol
SAGGSAGGMVKLKVYKIPESVPPELRALLEALVEGEGEVEVEPEEAEALLKLPGIEELEVEELESAGGSAGG [r6_381_TrMRF] | 0.912 ± 0.021 kcal/mol
SAGGGHMVNVTLTGSSIEEIKKELEELAKKYGFVINPKKVEKLPGPKYKITLNIKAPDEVVELIKKKSAGGS [r8_357_JUSTAS] | 0.943 ± 0.044 kcal/mol
SAGGKKVIITKVETNKNGKKTYTVTLYYKDKKTNEWKKVAEFTFESKEEAENAAKELAKKLNLKIIPSAGGS [r16_512_TrROS_Hall] | 3.08 ± 0.087 kcal/mol
SAIKIEEIKDVNPENKNIRIKIEMPGGPHEIPIPAKSEMDVEEALDLILDWFERHFPPGHKMRIEEIEISAG [r14_422_TrROS] | 0.886 ± 0.091 kcal/mol
SATPYTFTLPDGYVIPAYKLPDGTVRVTAQYYDPVDRKPVGTYEATADPTDGTIELTFPNGDKATITLPDSA [r9_56_TrMRF] | 0.859 ± 0.051 kcal/mol
SAGGSAGGSMKLVTVKMKRPNGPVELTPVLPVDPSETLEEVKERVLELYPGAEITEITVTPDESAGGSAGGS [r12_738_JUSTAS] | -0.358 ± 0.11 kcal/mol
SAGGSAGGSAGSPMSAEEVEERLREELRRELGPDYTVTVTVTEVLPEGVYVVSVTVTGPASAGGSAGGSAGG [r11_153_JUSTAS] | 2.49 ± 0.14 kcal/mol
SMRVVLVRPVPPELKEAELELRLPLPDGSEVEVKAETGEDFVVVTIELDDESAAEAVVEELEKLLEELLGSA [r9_790_TrMRF] | 0.926 ± 0.019 kcal/mol
SAGGSAGGSAGGLVPPDAVIPTETTAEEPVYVIDPVTGELTPIGPGVVRRKITRRVPRPSAGGSAGGSAGGS [r10_1115_JUSTAS] | -0.968 ± 0.22 kcal/mol
SSWEKLSTLTLPSTGLTVTFYYDPSTNSTAVKVTDGAGPELSEKVLSDDETFTLPDGVSIKLPKGAEPASSA [r9_340_JUSTAS] | 0.334 ± 0.021 kcal/mol
SAEVELKPDEELEFEFPDSQVKISYVPGTGVITTTTTFTTPDGTVVYKTTTIKKEGKEVTSTTVSLAEASSA [r9_881_JUSTAS] | 0.389 ± 0.054 kcal/mol
SAGGSAGGMKKYKMTITFKTPDGTPVKEKTIYFNSEEEAKKAAEEIKKKELEPDTPVTVSKEPDSAGGSAGG [r6_286_JUSTAS] | 0.425 ± 0.05 kcal/mol
SAGGSAGGSAAITIPVPPGETVTIKIEIEMTVPPNQRNPDGQRMKPGQKVRMEVTFTFRVDGSAGGSAGGSA [r18_450_TrROS] | 3 ± 0.11 kcal/mol
SAGGMRLVFVTETPEEAEEIARELAELFPDFELEAEVREEEVLVEVPETGEVKRRPVYVLVIELRPKSAGGS [r16_828_TrMRF] | 4.29 ± 0.098 kcal/mol
SAGGSAGGSAGGTAEIYFPNFPIRIDSVQLSPEKNHVQVSMENPDGPPVKGTMPPKDGILSAGGSAGGSAGG [r7_427_TrROS] | 1.58 ± 0.031 kcal/mol
SAGPMTLEILYKRPANEPFTLEDLELAKEVEEAVAALVPSKYKVRIKSIEYEKYPDYYYIRVTIEVEKPSAG [r5_121_TrMRF] | 4.57 ± 0.13 kcal/mol
SAGGSAGGSETRVLVRPLDGAIVIEAYRRLPDGSWVLAERIVIPTKGDDPESIARAQEVIDKLSAGGSAGGS [r12_169_TrMRF] | 3.76 ± 0.059 kcal/mol
SMSEKVEIDPAAIAEALKAGTEYEFDIKVTVTLFDPSNGKKVSTEEKVVKVKLKIPPPSPLPDPKNGYLLSA [r9_396_JUSTAS] | 1.11 ± 0.038 kcal/mol
KKKIKKIEIEIKIPVKSIEEAKEEVEKLAKELKEKFPEIKKIKVEIIKYDEKKGYITVKITIEVNGKKIEFS [r1_52_TrROS_Hall] | 1.56 ± 0.2 kcal/mol
SAGGSAGGKIRVEVEVEPLPGPEEGGRLLRVRVRVYNENGELLEEIEFPARSPEEAEERLRKAASAGGSAGG [r6_974_TrMRF] | 2.05 ± 0.044 kcal/mol

Sequence | folding stability dG unfold
SAGGSAGGSKMLLVKVYVPEFDTVVVFEAPRDITIEEIEERLREAGFSVARIEVVEFDLPEGGSAGGSAGGS [r12_955_TrMRF] | 3.02 ± 0.049 kcal/mol
SAGGSAGGSASSMVKPEKLPNGEKVVVTTETVPDPNSDTPVTVVTTEIYKGDKIVEVKTTLVSAGGSAGGSA [r18_185_JUSTAS] | 0.339 ± 0.038 kcal/mol
SAGMVTLRVKLKDGRELEIQLASEEEIESLPPGAKVIPIPAESEEEALEAAARLLAEEEGLEIEEVEKVSAG [r5_119_TrROS_Hall] | 0.671 ± 0.022 kcal/mol
SAGGSAGGSAGGMKVIKIEDVEKVKAEAKKNGIKVTYKKENDGEIIAYIEKIPKSIKNKSAGGSAGGSAGGS [r10_218_JUSTAS] | -0.832 ± 0.34 kcal/mol
SAGGSAGGSAGEPKLILVEVEGYPDPESNLVYVEFPNGDIATFAVDSAAPDQPVLVLVNPSAGGSAGGSAGG [r11_621_TrMRF] | 0.378 ± 0.044 kcal/mol
SFGMIEIENEAFLPDGFRFKVEVWVMVDPDNGNLMIMLDIEIEPIPPPPPPPEPKPVKDKNGDWKPANDMSA [r9_898_TrROS] | 1.82 ± 0.14 kcal/mol
SFTPEQVKDIAKTIANRMYDNGYEVEVDVEVEPVNNMPYVEIEFEWRDPDGQPWKFEIIIHPDGDIEIYPSA [r9_1027_TrROS] | 1.28 ± 0.16 kcal/mol
SAGGSAGGSAGEEKETLTLVLPLEDMSPEEIAKLLEAAGYKVTVEEKDGLLVVKIERKPPSAGGSAGGSAGG [r11_707_TrROS_Hall] | 2.57 ± 0.08 kcal/mol
SAGGKLPKLPPGQIEIMDFQIEPDPDGRYKMSFMITITAPDNGKKVVVMLEMWMPPDGEMKTGIGIMPSAGG [r13_263_TrROS] | 1.9 ± 0.14 kcal/mol
SAGGMEPPPMLLLVIEIENEDGEKLRIVVPLEDLEEVLKALGLSKEEVRIKKIEVVPLTDEQLKELLESAGG [r13_850_TrROS_Hall] | 3.43 ± 0.35 kcal/mol
SAGGSALENLEENEYIVKIEIEKKNKKKIEIVIAGKPEKIKEIEKELKKKGFKILKIEPKKVKDVLSAGGSA [r15_640_TrMRF] | 1.45 ± 0.054 kcal/mol
SVEKAREALEEAGFEVTRIEVREDGTVRVTVRRDGKLVEIELTVEPPPPVEVVEEEPEVRVERRYSAEDLSA [r9_2_TrROS_Hall] | 0.499 ± 0.15 kcal/mol
SAETVTFRVGDVEIVARRLPDGYVVVTEKVPEEYPEAELVLSLVRVYPDGTVEVESRLYRIDPETGVIGSAG [r14_724_TrMRF] | 2.12 ± 0.049 kcal/mol
SAMKTVTIKVTVEVTKNENGEEVKTVTVTLTLPEEEMTEEQLKELAKELADKLAEENNLTVKITKIEVTSAG [r14_190_TrROS_Hall] | 3.27 ± 0.19 kcal/mol
SAGGSAGGSAILVPSPETAKKIMDELRKKTGAKVKMKPIGTGADGKEYYRIEVVPPDKPLDSAGGSAGGSAG [r3_59_TrMRF] | 0.029 ± 0.084 kcal/mol
SAGGMPADTPVIPIEILDIRVEPDPESDSYTAEVKVRFPDGTEKTFTIKLPKDATLEDVIEKAKELAASAGG [r13_578_TrMRF] | 3.83 ± 0.2 kcal/mol
SAGGSAGGSAGGMVITVPKENLKELIDALRKEGKARIVSVEEKDGLVTITVELEDEELESAGGSAGGSAGGS [r10_695_TrROS_Hall] | 3.24 ± 0.18 kcal/mol
SAGGSAGGSATATVTPHEGAWTVTVTGPDSTETFTFEADEETVREFVELLKAPDVDIDPVPGSAGGSAGGSA [r18_103_TrMRF] | 1.79 ± 0.07 kcal/mol
SAGGSAGGSAGGFNIEVVPGEPGWVIKIEFPDHPITAFVDPEDGKLWIYNPDNGMIFPLSAGGSAGGSAGGS [r10_434_TrROS] | 2.2 ± 0.042 kcal/mol
SLSPSTPISSEEEAKEAAEKLAEEVREELGEDLPIVVDIERKELEDGTIVVKFTFYVPETGEKLLEVEVGSA [r9_794_JUSTAS] | 1.2 ± 0.097 kcal/mol
SAGGSAGGSKPDEVEVIEIKVPPGARVRLPDGSVVEIKPGDPNTTYRIVVDKKNKKITIEPLDSAGGSAGGS [r12_338_TrROS_Hall] | 1.38 ± 0.12 kcal/mol
